± gives the uncertainty stated by the source.

A short description of this series: amyloid nucleation score (Sup35N fusion, yeast selection) (log enrichment); library NNK2; higher = more nucleation; inactive = no reads after selection. The method in brief:
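Sup35N was fused to peptides of 20 random codons and expressed in psi-negative yeast, which were induced with 100 μM copper sulfate for 24 hours and then grown on medium lacking adenine and uracil for 7 days at 30°C. Plasmid inserts from input and output were sequenced on Illumina. The nucleation score is the DiMSum log enrichment of output over input reads, centred on the mode score of non-aggregating sequences. Sequences with under 100 input reads were left out, and random libraries had three technical output replicates.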
HFVFI had an amyloid nucleation score of -1.05 ± 1.1.

In turn, IMNKVAWWIFMRMLSRGFVT showed an amyloid nucleation score of -1.1 ± 0.54.

ISFWSHSDTFVGNEGEHSVR had an amyloid nucleation score of 1.29 ± 0.42.

Turning to CMWLLMTHPHKVTIMQ, the amyloid nucleation score was 7.262 ± 0.061.

As to CGVASSHFDGLLNR, the amyloid nucleation score is 2.58 ± 0.12.

Turning to WGRWAVSFYGLREDSLLSLG, the amyloid nucleation score is -0.324 ± 0.53.

For FYYLWWDSFRIVISMR, the amyloid nucleation score is -1.86 ± 0.62.

In the case of SYSYDRVRKDTELARRNRAV, the amyloid nucleation score stood at 0.436 ± 0.44.

Regarding LYMILNGYTLGSCFTVRDSF, the amyloid nucleation score was 4.99 ± 0.078.

In the case of SYHGVRLFDIHIGSLKFQQ, the amyloid nucleation score came out at 7.549 ± 0.054.

Take IYMRRCSVLGSHCH: the amyloid nucleation score was 0.081 ± 1.1.

As to TLGTFVWVFRSFTCLLLEEQ, the amyloid nucleation score is 3.29 ± 0.057.

Regarding FNFVMLYPTPAGSAKFVGCI, the amyloid nucleation score was found to be 2.85 ± 0.19.

Substance ALMSCLLCVHWRLDSATGGR showed an amyloid nucleation score of 5.64 ± 0.09.

ALGTEFSVPKFTDGVNMAAR came in with an amyloid nucleation score of -0.451 ± 0.48.

Regarding MLWQFKWESGYVTLRARPN, the amyloid nucleation score entry was “inactive”.

Take HSTVSLQSGRMNVVASGVIH: the amyloid nucleation score was found to be 1.62 ± 0.11.

For the substance GIYNVLS, the amyloid nucleation score was -0.108 ± 1.1.

In the case of GMDSFPFCMCRDCPYWGYDM, the amyloid nucleation score was -0.745 ± 0.32.

QYMLLMMC displayed an amyloid nucleation score of 0.671 ± 0.6.

With VRLSWCNMFNRVFPI, the amyloid nucleation score came out at 0.3 ± 0.8.

In turn, HLWFLCRSYGGVLKFHTESV showed an amyloid nucleation score of 1.03 ± 0.43.

Turning to EFMYKQCRYIVTPYGLVVSR, the amyloid nucleation score was -0.557 ± 1.1.

For the substance LIIVMTLPYFGTSAM, the amyloid nucleation score is 0.362 ± 0.3.

VLLQNYAMVAFT returned an amyloid nucleation score of -1.07 ± 0.45.

The substance TYFVLYVCED came in with an amyloid nucleation score of 0.311 ± 0.23.

Consider SAHLYALGNSRHFIYVPVEL, for which the amyloid nucleation score result is “inactive”.

As to VYIAAHTCIC, the amyloid nucleation score was found to be 4.93 ± 0.079.

In turn, TVPTMVW showed an amyloid nucleation score of -0.124 ± 0.29.

As for WFFFFNGPAYVFNLNIVNFS, the amyloid nucleation score was determined as 7.035 ± 0.06.

In the case of GYSSGFQVAVNLRSTLRQSY, the amyloid nucleation score amounted to 3.03 ± 0.068.

On to RYVVCNGRNLELLDFMNSRS, for which the amyloid nucleation score was -0.74 ± 1.1.

On to AVGNNN, for which the amyloid nucleation score was -1.11 ± 0.74.

For the substance VTNSVSHIVDCCAHSERVWV, the amyloid nucleation score was 0.111 ± 0.39.

Substance MSVLSMVFSGFDPMERFGEL displayed an amyloid nucleation score of 0.294 ± 0.8.

For YGRLECISWCPISIHCGGAR, the amyloid nucleation score was found to be 3.47 ± 0.11.

Consider CCVEPVVRDVEVKIRSVVMN, for which the amyloid nucleation score was found to be 0.123 ± 0.56.

Substance SLQFVGYYFPFNRVCARSGA gave an amyloid nucleation score of -0.913 ± 0.45.

WVYLRVFAHKKRAALSWAYS had an amyloid nucleation score of -0.077 ± 0.34.

Substance WCWLEYCCTIDSLIFLFEN had an amyloid nucleation score of 4.09 ± 0.12.

The substance IARDYVQ registered an amyloid nucleation score of -0.918 ± 0.54.

The substance ALNDAGYT returned an amyloid nucleation score of -0.656 ± 0.27.

AAFLAVSGFCNLPGGSTHIL: the amyloid nucleation score worked out at 2.38 ± 0.079.

Regarding GSGNPGMSIFVKIY, the amyloid nucleation score was -1.16 ± 0.62.

With YCMCIFATLG, the amyloid nucleation score was -0.398 ± 0.76.

Turning to AFAVSSLESGWRRRTSLEWL, the amyloid nucleation score is 0.106 ± 0.55.

In the case of YVGLV, the amyloid nucleation score is -0.23 ± 0.22.

Consider CQSLIFASTYHRNSSFGKNV, for which the amyloid nucleation score was 2.92 ± 0.16.

As for HFMFVSNRVGWVGLLQNYSR, the amyloid nucleation score was 6.657 ± 0.066.

NCFRVFNSFSIFGAFRTMDR yielded an amyloid nucleation score of 5.22 ± 0.064.

Turning to NDVGSLWVIADVGIFYVQDK, the amyloid nucleation score is -0.662 ± 0.61.

On to LHMECLKDKSCNNSSADVRG, for which the amyloid nucleation score stood at 0.374 ± 0.62.

In the case of VDSRGFHYDL, the amyloid nucleation score result was “inactive”.

As to STVWVFRYYNNYWYDQRTLP, the amyloid nucleation score was determined as 6.807 ± 0.054.

YEYVSYCVSDFRYLLQTV registered an amyloid nucleation score of 0.436 ± 0.66.

Take KQLFSLISYVG: the amyloid nucleation score is -1.4 ± 1.1.

LYRVILLSSRHNGSNIWAEF showed an amyloid nucleation score of 0.127 ± 0.74.

In the case of VYCFSAFLGQ, the amyloid nucleation score is 3.63 ± 0.082.

As for FEIGSV, the amyloid nucleation score entry was “inactive”.

For the substance LNILHNFRKRTLFAAMFVLR, the amyloid nucleation score result is “inactive”.

In the case of GSDQNSCELSRRDIKKCMAL, the amyloid nucleation score was 0.504 ± 0.33.

FSWDPGMIWGKI returned an amyloid nucleation score of 7.203 ± 0.053.

On to AAACAGIKFLLTFTFGFRTW, for which the amyloid nucleation score result is “inactive”.

KAKLMKRSFWMWSCLLCFR showed an amyloid nucleation score of 0.912 ± 0.74.

Take LYRRFRQRCIRERERLVHGL: the amyloid nucleation score came out at 0.01 ± 0.38.

In turn, TWRHSPCLVRTEFERKLTRL had an amyloid nucleation score of 0.039 ± 0.49.

With WEITLVNGSWVLESRTQRHF, the amyloid nucleation score was 4.06 ± 0.079.

DRLLRSRLGIRSNRIVCW gave an amyloid nucleation score of -0.539 ± 0.36.

For VYYLDSV, the amyloid nucleation score is 0.978 ± 0.74.

FHVKIGW registered an amyloid nucleation score of -0.086 ± 0.33.

The substance WGAEILAHVGPSHEYSR had an amyloid nucleation score of -0.175 ± 0.49.

Substance LSFPHVLYFETCPCMARVVA gave an amyloid nucleation score of -0.081 ± 1.1.

LATWLP gave an amyloid nucleation score of 0.871 ± 0.21.

As for RNHVAHH, the amyloid nucleation score was 2.17 ± 0.21.

INCFSLLEPLEYFSRLCQQR registered an amyloid nucleation score of -0.276 ± 0.55.

Substance NTFQSKDRGQWCSTRNAYKG registered an amyloid nucleation score of -0.772 ± 0.45.

QSFFLN: the amyloid nucleation score entry was “inactive”.

Take SFLRARLCCHMMGHSTLKYH: the amyloid nucleation score is -0.72 ± 1.1.

SMSLRTCSLSFVSWMKFKDG yielded an amyloid nucleation score of 0.095 ± 0.45.

In turn, TVCWEWSSLWDTPSLKSAD gave an amyloid nucleation score of 0.536 ± 0.37.

The substance TKLLP registered an amyloid nucleation score of -0.149 ± 0.55.

In turn, TRNAFNCTENISTLPTARYL gave an amyloid nucleation score of -0.399 ± 0.46.

As to AYRSDCIRHGGPFAGYNICI, the amyloid nucleation score is 0.044 ± 1.1.

Regarding NDCGSNDRLSNTFFWFLLFG, the amyloid nucleation score was 0.142 ± 0.65.

KGGSRLCNFRSATKLSGPLL: the amyloid nucleation score was 0.597 ± 0.46.

For the substance SYANCNLNVNTLREEVHERW, the amyloid nucleation score worked out at 0.268 ± 0.62.

As for NHSGRYGRRLILRLGFFGVG, the amyloid nucleation score is -0.655 ± 0.28.

The substance VFTFVKERQSTWVVSFPQFL yielded an amyloid nucleation score of 4.68 ± 0.066.

RVDGDYSSARRGGLISKWAF had an amyloid nucleation score of 0.804 ± 0.5.

In the case of VYTTLPYSFGGYNCYMSSRL, the amyloid nucleation score entry is “inactive”.

In turn, RAWCYTGMRGDMESW had an amyloid nucleation score of -0.447 ± 0.41.

Substance DIRMLERTNLIPYNKQVMGM had an amyloid nucleation score of 0.163 ± 0.29.

In turn, YTSGSTGRDLLPNMKRGSVV came in with an amyloid nucleation score of 4.36 ± 0.12.

Take YGPICEYFQGCEALSWWSTC: the amyloid nucleation score worked out at 0.39 ± 0.2.

Substance HMMFKSPYRCLLLNLTGYVL displayed an amyloid nucleation score of 0.934 ± 0.25.

Consider MRSRNLLS, for which the amyloid nucleation score result is “inactive”.

TETAL showed an amyloid nucleation score of -1.05 ± 0.61.

Turning to NKVMGAEGCTGLEL, the amyloid nucleation score is -0.744 ± 0.28.

Take LLFMVIFDRECRVIIHCGTM: the amyloid nucleation score is -0.21 ± 0.34.

TIIRMKLS yielded an amyloid nucleation score of 1.39 ± 0.39.

The substance ALLVRVIRYRGSRNESRCPA had an amyloid nucleation score of 1.42 ± 0.34.

In turn, VINSMY yielded an amyloid nucleation score of 1.11 ± 0.45.

The substance RGLTKLSVLFRQNKESYNIV showed an amyloid nucleation score of -0.521 ± 0.76.

In turn, HLMCESGRVFWKD gave an amyloid nucleation score of 0.015 ± 0.31.

On to VSSPLAWKFLVNKICISDGG, for which the amyloid nucleation score entry was “inactive”.

As to YNQRTFVSVSYEWTSGPWVC, the amyloid nucleation score came to 0.334 ± 0.33.

TLFSYEYVYKFMGPRFKGAG: the amyloid nucleation score was -0.746 ± 0.54.

For the substance AGASSRKWGLYDVYVERSEA, the amyloid nucleation score result was “inactive”.

Regarding PSCDVFVKIRLHFAFVKNFI, the amyloid nucleation score result is “inactive”.

VCYYMWWFVYKHRSWQSGSW returned an amyloid nucleation score of -0.639 ± 0.74.

Take SDARPYWIIYMSNQPYGIDS: the amyloid nucleation score entry is “inactive”.

LRSQSHR: the amyloid nucleation score turned out to be 1.31 ± 0.33.

Consider LFAIKTGQDHCNTRLKKSQC, for which the amyloid nucleation score was -0.087 ± 0.76.

Substance HTSVLNMTGSGLIPN returned an amyloid nucleation score of -1.82 ± 0.78.

Take STCSTGHRSLRTKKRNSILS: the amyloid nucleation score stood at 4.34 ± 0.096.

ESSSVKPPVRFLW had an amyloid nucleation score of 0.455 ± 0.64.

Take VLYGVCIVCCSWSMTSC: the amyloid nucleation score worked out at 0.959 ± 0.6.

Substance VFILSEYVTNAVK returned an amyloid nucleation score of -0.165 ± 0.54.

In turn, YMIFCLSIYEDDEALGPTER yielded an amyloid nucleation score of -0.287 ± 0.21.

On to ACKRGTFQWNACLSPGSCGR, for which the amyloid nucleation score was determined as 0.902 ± 0.36.

Substance EESSTKGMTG returned an amyloid nucleation score of -0.014 ± 0.26.

KFSKIRFAFIIFGSKPYMRV displayed an amyloid nucleation score of -0.875 ± 0.49.

The substance FAAHCFDFMIHVPMGPAENK registered an amyloid nucleation score of 3.69 ± 0.13.

Consider KTDRLTKGTATFKRMTEI, for which the amyloid nucleation score entry was “inactive”.

DFLWTFVGNFLE displayed an amyloid nucleation score of -1.43 ± 0.78.

On to IRFANVPSRNKFH, for which the amyloid nucleation score was determined as 0.486 ± 0.36.

As for RNFDRGWSHR, the amyloid nucleation score amounted to 0.319 ± 0.4.

The substance CRPGRLYVQIIFISMIRDNR had an amyloid nucleation score of -0.513 ± 0.48.

In turn, QWSVINRTS gave an amyloid nucleation score of 1.54 ± 0.31.

On to DLVVYLSPVGGTGRFYEVGA, for which the amyloid nucleation score turned out to be 3.92 ± 0.062.

As for FSFYLTQSKSALIIDVAQRI, the amyloid nucleation score was -0.231 ± 0.49.

YWNDSSRYGQVGVEYC returned an amyloid nucleation score of 0.49 ± 0.8.

The substance WGWEIFIVWTWLRGVILYVL yielded an amyloid nucleation score of -0.602 ± 1.1.

With RFGIGSLRSTSHVAGLMVMS, the amyloid nucleation score came out at 0.733 ± 0.44.

In turn, TSSFIRLNYSNALLNKFWSN had an amyloid nucleation score of -1.99 ± 0.75.

Turning to SNGFREYCATICNGTGDRRG, the amyloid nucleation score came to 0.651 ± 0.62.

Regarding MTCSSHCGMCIPSIPQVFGA, the amyloid nucleation score was 1.02 ± 0.4.

The substance FITDYTWTYLHAWLFIHQGV registered an amyloid nucleation score of -0.705 ± 1.1.

VIFLVDNCCMACDSLEPRTI came in with an amyloid nucleation score of 0.513 ± 0.25.

The values are drawn from the supplement of paper PMC12042874.
